Source: patent publication US20240181006A1, “POLYPEPTIDES BINDING ADAMTS5, MMP13 AND AGGRECAN” (Merck Patent GmbH, priority 2017, published 2024)

What was measured:
[1] = test system: cynomolgus monkey ADAMTS5; test: SPR-based off-rate analysis, cynomolgus ADAMTS5; type: binding; details: Experiment 1
Protocol: (§1) Species cross-reactivity was initially evaluated via SPR-based off-rate analysis on a Biacore T100 instrument. Polypeptides were tested for binding to human, cynomolgus monkey (“cyno”), guinea pig, mouse, and bovine ADAMTS5. To this end, recombinant ADAMTS5 was immobilized onto a CM5 chip via amine coupling using EDC and NHS. Purified ISVD 02F03 was injected for 2 minutes at a concentration of 100 nM and allowed to dissociate for 15 min at a flow rate of 45 μl/min. Off-rate for each individual ADAMTS5 was determined by fitting a 1:1 interaction model (Langmuir model) onto the individual dissociation curves using the BIA Evaluation software. As a reference, off-rates on human ADAMTS5 were determined in each experiment.

guinea pig ADAMTS5 = molecular target: T1, guinea pig ADAMTS5 (Cavia porcellus, UniProt H0VFP0); test: SPR-based off-rate analysis, guinea pig ADAMTS5; type: binding; details: Experiment 1
T1 sequence (H0VFP0 21-906): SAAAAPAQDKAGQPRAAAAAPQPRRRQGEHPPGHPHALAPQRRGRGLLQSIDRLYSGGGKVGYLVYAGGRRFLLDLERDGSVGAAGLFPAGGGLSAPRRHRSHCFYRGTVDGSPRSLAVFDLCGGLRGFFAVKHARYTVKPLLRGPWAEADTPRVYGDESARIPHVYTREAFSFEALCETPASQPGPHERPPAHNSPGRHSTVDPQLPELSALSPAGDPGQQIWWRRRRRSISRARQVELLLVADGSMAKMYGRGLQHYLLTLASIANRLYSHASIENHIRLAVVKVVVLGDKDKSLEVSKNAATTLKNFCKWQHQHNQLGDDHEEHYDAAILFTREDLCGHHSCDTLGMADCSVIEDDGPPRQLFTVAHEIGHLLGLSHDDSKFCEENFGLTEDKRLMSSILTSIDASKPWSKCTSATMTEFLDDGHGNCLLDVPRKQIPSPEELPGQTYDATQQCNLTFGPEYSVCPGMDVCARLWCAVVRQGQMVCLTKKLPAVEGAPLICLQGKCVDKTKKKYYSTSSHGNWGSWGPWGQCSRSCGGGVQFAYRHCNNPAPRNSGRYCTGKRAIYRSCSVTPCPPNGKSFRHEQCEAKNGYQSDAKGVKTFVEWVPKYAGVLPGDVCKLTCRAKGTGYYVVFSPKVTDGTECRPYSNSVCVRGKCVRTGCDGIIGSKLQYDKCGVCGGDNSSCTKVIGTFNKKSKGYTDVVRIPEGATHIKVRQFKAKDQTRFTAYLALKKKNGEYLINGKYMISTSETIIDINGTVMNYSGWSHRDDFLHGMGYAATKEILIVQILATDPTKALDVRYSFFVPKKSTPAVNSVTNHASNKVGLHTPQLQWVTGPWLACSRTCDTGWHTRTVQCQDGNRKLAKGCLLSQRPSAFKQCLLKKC
Protocol: as §1

human MMP1 = molecular target: T2, human MMP1 (Homo sapiens, UniProt P03956); test: FRET-based human MMP1 assay (selectivity of 02F03); type: biochemical; details: data not shown
T2 sequence (P03956 100-469): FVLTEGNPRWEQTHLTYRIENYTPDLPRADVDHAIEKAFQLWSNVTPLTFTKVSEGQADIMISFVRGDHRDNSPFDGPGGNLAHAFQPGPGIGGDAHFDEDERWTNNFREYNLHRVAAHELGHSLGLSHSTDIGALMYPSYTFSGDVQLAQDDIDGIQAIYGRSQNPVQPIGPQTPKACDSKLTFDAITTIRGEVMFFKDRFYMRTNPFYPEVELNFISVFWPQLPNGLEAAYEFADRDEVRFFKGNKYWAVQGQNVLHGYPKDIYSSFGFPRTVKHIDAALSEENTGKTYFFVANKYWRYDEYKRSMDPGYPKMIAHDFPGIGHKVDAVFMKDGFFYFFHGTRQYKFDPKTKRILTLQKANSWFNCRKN
Protocol: To confirm the selectivity of ISVD 02F03 for ADAMTS5, inhibition of the enzymatic activity of MMP1, MMP14 and ADAMTS4 was evaluated via FRET-based assays and a human ADAMTS4 AlphaLISA, with the respective enzymes.
Activated human MMP1 or MMP14 was incubated for 30 minutes at room temperature with 10 μl of dilution series of ISVD 02F03. After incubation, 20 μl of respectively 5 μM or 2.5 μM fluorogenic peptide substrate (Mca-PLGL-Dpa-AR-NH2 Fluorogenic MMP Substrate (R&D Systems cat #ES001)) was added. The ability of ISVD 02F03 to prevent MMP1- and MMP14-mediated cleavage was monitored every minute for 2 hours at 37° C. on a Tecan Infinite M1000 plate reader.

human ADAMTS5 = molecular target: T3, human ADAMTS5 (Homo sapiens, UniProt Q9UNA0); test: FRET-based human ADAMTS5 enzymatic assay; type: biochemical
T3 sequence (Q9UNA0 262-930): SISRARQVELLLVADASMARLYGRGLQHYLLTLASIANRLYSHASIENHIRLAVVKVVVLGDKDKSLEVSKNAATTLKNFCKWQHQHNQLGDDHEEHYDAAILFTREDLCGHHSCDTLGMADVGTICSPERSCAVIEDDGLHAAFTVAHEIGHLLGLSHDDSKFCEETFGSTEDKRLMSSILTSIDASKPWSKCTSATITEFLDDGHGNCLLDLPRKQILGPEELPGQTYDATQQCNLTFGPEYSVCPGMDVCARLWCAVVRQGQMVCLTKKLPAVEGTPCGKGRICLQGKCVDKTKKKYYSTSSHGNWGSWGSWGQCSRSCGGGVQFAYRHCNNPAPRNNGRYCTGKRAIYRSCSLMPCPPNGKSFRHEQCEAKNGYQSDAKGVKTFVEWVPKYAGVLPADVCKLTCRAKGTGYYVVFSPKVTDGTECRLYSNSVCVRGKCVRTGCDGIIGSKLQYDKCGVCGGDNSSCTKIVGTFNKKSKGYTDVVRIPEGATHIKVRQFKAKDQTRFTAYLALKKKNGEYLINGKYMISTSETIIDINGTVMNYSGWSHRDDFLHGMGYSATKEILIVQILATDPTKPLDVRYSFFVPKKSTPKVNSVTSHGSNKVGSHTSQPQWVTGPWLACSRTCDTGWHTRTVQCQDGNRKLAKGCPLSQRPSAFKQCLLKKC
Protocol: In short, a periplasmic extract of ISVD 02F03 was tested for binding to recombinant human ADAMTS5 by binding ELISA. Next, it was confirmed that ISVD 02F03 was able to prevent ADAMTS5-mediated cleavage of Aggrecan in a FRET-based human ADAMTS5 enzymatic assay. Next to the FRET-based assay, an AlphaLISA (Perkin Elmer, Waltham, MA, US) based human ADAMTS5 assay with a biotinylated 43-mer Aggrecan oligopeptide as substrate was performed. Upon ADAMTS5 cleavage of this substrate, a biotinylated ARGSV neo-epitope product is released and can be detected by streptavidin-AlphaScreen donor beads and an α-neo-epitope (“ARGSV”) antibody captured on anti-mouse IgG-coated AlphaLISA acceptor beads, resulting in the generation of a luminescence AlphaScreen signal upon laser excitation. To determine the ability of ISVD 02F03 to prevent ADAMTS5-mediated cleavage of the substrate, the decrease in signal was analysed in function of ISVD 02F03 concentration and IC50 values were calculated.

SPR based off-rate, kd, Cyno ADAMTS-5 [1]: 2.2e-05 s⁻¹
SPR based off-rate, kd, Guinea pig ADAMTS-5 (guinea pig ADAMTS5): 3.4e-05 s⁻¹
inhibition of MMP1 activity (human MMP1): did not show any inhibition
Human FRET % inhibition (human ADAMTS5): 89%
B1: ISVD 02F03: immunoglobulin single variable domain which specifically binds ADAMTS5 (protein)
VHH: EVQLVESGGGVVQPGGSLRLSCAASGRTVSSYAMGWFRQAPGKEREFVAGISRSAERTYYVDSLKGRFTISRDNSKNTVYLQMNSLRPEDTALYYCAADLDPNRIFSREEYAYWGQGTLVTVSS
modifications: Description of Artificial Sequence: Synthetic anti-ADAMTS5 immunoglobulin single variable domain (ISVD)
